Measured values as given in paper PMC4924701.

Target: GADS (UniProt O75791)
Assay: anti-FLAG co-IP, Western blot
Settings: reference: wild-type FLT3

| binding against the reference (sites Y955) | binding against the reference (sites Y955,Y969) | Substance |
| --- | --- | --- |
| weaker | – | FLT3 (from UniProt P36888) FLT3-Y955F |
| – | lost | FLT3 (from UniProt P36888) FLT3-Y955F-Y969F |
